One molecule from patent US20230184768A1 (MESO SCALE TECHNOLOGIES, published 2023) can be followed below.

The test concerns the target T1, labeled ACE2 (angiotensin-converting enzyme 2) (human, UniProt Q9BYF1 18-740).
T1 construct: also called ACE2 detection reagent
Briefly: labeled ACE2 on immobilized Mixed Panel, ECL.

T1 sequence (Q9BYF1 18-740 limits assumed): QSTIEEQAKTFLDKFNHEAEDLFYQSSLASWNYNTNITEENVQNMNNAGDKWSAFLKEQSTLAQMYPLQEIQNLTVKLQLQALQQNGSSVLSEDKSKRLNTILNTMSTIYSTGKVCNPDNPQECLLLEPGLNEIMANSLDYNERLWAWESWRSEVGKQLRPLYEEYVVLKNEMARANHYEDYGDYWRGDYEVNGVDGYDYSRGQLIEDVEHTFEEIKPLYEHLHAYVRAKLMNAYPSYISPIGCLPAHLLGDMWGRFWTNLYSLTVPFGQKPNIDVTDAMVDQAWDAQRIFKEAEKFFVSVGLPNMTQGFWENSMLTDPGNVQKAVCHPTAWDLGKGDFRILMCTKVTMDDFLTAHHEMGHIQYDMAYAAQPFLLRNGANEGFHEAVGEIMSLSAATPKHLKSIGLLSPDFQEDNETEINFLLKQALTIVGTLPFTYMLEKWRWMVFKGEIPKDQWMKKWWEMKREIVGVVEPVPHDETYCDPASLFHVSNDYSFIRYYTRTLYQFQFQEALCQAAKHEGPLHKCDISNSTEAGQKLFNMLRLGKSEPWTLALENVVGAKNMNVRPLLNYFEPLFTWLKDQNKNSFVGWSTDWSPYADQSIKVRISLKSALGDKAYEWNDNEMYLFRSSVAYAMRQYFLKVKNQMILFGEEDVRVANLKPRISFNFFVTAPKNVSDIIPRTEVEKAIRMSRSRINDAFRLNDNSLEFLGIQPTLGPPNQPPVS

B1: HCoV-OC43 S protein (other)
chain: AVIGDLKCTSDNINDKDTGPPPISTDTVDVTNGLGTYYVLDRVYLNTTLFLNGYYPTSGSTYRNMALKGSVLLSRLWFKPPFLSDFINGIFAKVKNTKVIKDRVMYSEFPAITIGSTFVNTSYSVVVQPRTINSTQDGDNKLQGLLEVSVCQYNMCEYPQTICHPNLGNHRKELWHLDTGVVSCLYKRNFTYDVNADYLYFHFYQEGGTFYAYFTDTGVVTKFLFNVYLGMALSHYYVMPLTCNSKLTLEYWVTPLTSRQYLLAFNQDGIIFNAEDCMSDFMSEIKCKTQSIAPPTGVYELNGYTVQPIADVYRRKPNLPNCNIEAWLNDKSVPSPLNWERKTFSNCNFNMSSLMSFIQADSFTCNNIDAAKIYGMCFSSITIDKFAIPNGRKVDLQLGNLGYLQSFNYRIDTTATSCQLYYNLPAANVSVSRFNPSTWNKRFGFIEDSVFKPRPAGVLTNHDVVYAQHCFKAPKNFCPCKLNGSCVGSGPGKNNGIGTCPAGTNYLTCDNLCTPDPITFTGTYKCPQTKSLVGIGEHCSGLAVKSDYCGGNSCTCRPQAFLGWSADSCLQGDKCNIFANFILHDVNSGLTCSTDLQKANTDIILGVCVNYDLYGILGQGIFVEVNATYYNSWQNLLYDSNGNLYGFRDYIINRTFMIRSCYSGRVSAAFHANSSEPALLFRNIKCNYVFNNSLTRQLQPINYFDSYLGCVVNAYNSTAISVQTCDLTVGSGYCVDYSKNRRSRGAITTGYRFTNFEPFTVNSVNDSLEPVGGLYEIQIPSEFTIGNMVEFIQTSSPKVTIDCAAFVCGDYAACKSQLVEYGSFCDNINAILTEVNELLDTTQLQVANSLMNGVTLSTKLKDGVNFNVDDINFSPVLGCLGSECSKASSRSAIEDLLFDKVKLSDVGFVEAYNNCTGGAEIRDLICVQSYKGIKVLPPLLSENQISGYTLAATSASLFPPWTAAAGVPFYLNVQYRINGLGVTMDVLSQNQKLIANAFNNALYAIQEGFDATNSALVKIQAVVNANAEALNNLLQQLSNRFGAISASLQEILSRLDALEAEAQIDRLINGRLTALNAYVSQQLSDSTLVKFSAAQAMEKVNECVKSQSSRINFCGNGNHIISLVQNAPYGLYFIHFSYVPTKYVTARVSPGLCIAGDRGIAPKSGYFVNVNNTWMYTGSGYYYPEPITENNVVVMSTCAVNYTKAPYVMLNTSIPNLPDFKEELDQWFKNQTSVAPDLSLDYINVTFLDLQVEMNRLQEAIKVLNQSYINLKDIGTYE
notes: also called HCoV-OC43 spike protein
Turning to B1, the binding result is “no binding”.
